In the supplement of paper PMC7877785:
± gives the uncertainty stated by the source.

Experiment: self-splicing fitness, log relative to wild type (ln ratio); higher = more splicing; Tetrahymena group I intron in knt gene, E. coli kanamycin selection, DiMSum; sequences stand for … in CUCUCU…GGAGGGAAAAGUUAUCAGGCAUGCACCUGGUAGCUAGUCUUUAAACCAAUAGAUUGCAUCGGUUUAAAAGGCAAGACCGUCAAAUUGCGGGAAAGGGGUCAACAGCCGUUCAGUACCAAGUCUCAGGGGAAACUUUGAGAUGGCCUUGCAAAGGGUAUGGUAAUAAGCUGACGGACAUGGUCCUAACCACGCAGCCAAGUCCUAAGUCAACAGAUCUUCUGUUGAUAUGGAUGCAGUUCACAGACUAAAUGUCGGUCGGGGAAGAUGUAUUCUUCUCAUAAGAUAUAGUCGGACCUCUCCUUAAUGGGAGCUAGCGGAUGAAGUGAUGCAACACUGGAGCCGCUGGGAACUAAUUUGUAUGCGAAAGUAUAUUGAUUAGUUUUGGAGUACUCGUGGUCG
How it was run: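 The eight P1ex-region nucleotides of an intron in the knt kanamycin-resistance gene on pET-22b(+) were all randomised and the library put into E. coli BL21(DE3). Six replicate transformations were grown overnight at 37°C or 30°C on LB agar with or without 25 μg/mL kanamycin, together with 100 μg/mL carbenicillin, 50 μM IPTG and 0.2% rhamnose. Colonies were pooled and amplicon-sequenced on an Illumina HiSeq 2500. Fitness from DiMSum is the error-weighted combination of wild-type-normalised replicate fold changes, kanamycin over none.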

| Sequence | self-splicing fitness (ln) (30 °C) | self-splicing fitness (ln) (37 °C) |
| --- | --- | --- |
| CGAAAGCAAUAUUACGCGGG | -2.77 ± 0.18 | -1.88 ± 0.19 |
| CGAAAGCAAUAUUACGCUCA | -0.156 ± 0.094 | 0.0149 ± 0.13 |
| CGAAAGCAAUAUUACGGCGC | -1.14 ± 0.13 | -0.908 ± 0.15 |
| CGAAAGCAAUAUUACGGGAU | -2.98 ± 0.21 | -2.87 ± 0.27 |
| CGAAAGCAAUAUUACGGGGA | -3.09 ± 0.31 | -1.85 ± 0.2 |
| CGAAAGCAAUAUUACGGUCG | -2.88 ± 0.15 | -2.19 ± 0.16 |
| CGAAAGCAAUAUUACGGUGA | -1.52 ± 0.084 | -0.808 ± 0.11 |
| CGAAAGCAAUAUUACGUAAC | – | -0.987 ± 0.5 |
| CGAAAGCAAUAUUACGUAGC | -3.4 ± 0.29 | -2.39 ± 0.27 |
| CGAAAGCAAUAUUACGUCAG | -1.1 ± 0.08 | 0.335 ± 0.11 |
| CGAAAGCAAUAUUACGUGCA | -2.12 ± 0.12 | -1.13 ± 0.12 |
| CGAAAGCAAUAUUACGUGCC | -3.18 ± 0.17 | -1.95 ± 0.17 |
| CGAAAGCAAUAUUACGUGCG | -1.22 ± 0.076 | -0.524 ± 0.097 |
| CGACAGCAAUAUUACGAACC | -3.27 ± 0.27 | -0.556 ± 0.2 |
| CGACAGCAAUAUUACGAAUC | -4.11 ± 0.46 | -2.71 ± 0.34 |
| CGACAGCAAUAUUACGACAU | -2.444 ± 0.014 | -1.33 ± 0.033 |
| CGACAGCAAUAUUACGACCC | -1.31 ± 0.19 | 0.117 ± 0.23 |
| CGACAGCAAUAUUACGACCU | -1.56 ± 0.099 | 0.317 ± 0.11 |
| CGACAGCAAUAUUACGACUA | -2.15 ± 0.13 | 0.027 ± 0.092 |
| CGACAGCAAUAUUACGACUC | -2.83 ± 0.18 | -1.18 ± 0.15 |
| CGACAGCAAUAUUACGAGAA | – | -2.41 ± 0.23 |
| CGACAGCAAUAUUACGAGCU | -2.86 ± 0.15 | -2.17 ± 0.17 |
| CGACAGCAAUAUUACGAGGA | -3.91 ± 0.2 | -2.53 ± 0.18 |
| CGACAGCAAUAUUACGAGGG | -3.67 ± 0.13 | -2.99 ± 0.15 |
| CGACAGCAAUAUUACGAGUU | -2.98 ± 0.1 | -3.25 ± 0.15 |
| CGACAGCAAUAUUACGAUCU | -0.335 ± 0.1 | 0.552 ± 0.094 |

| Sequence | self-splicing fitness (ln) (30 °C) | self-splicing fitness (ln) (37 °C) |
| --- | --- | --- |
| CGACAGCAAUAUUACGCCAG | -1.73 ± 0.11 | -0.84 ± 0.13 |
| CGACAGCAAUAUUACGCGAG | -1.5 ± 0.16 | -2.32 ± 0.21 |
| CGACAGCAAUAUUACGCGGG | -2.71 ± 0.12 | -2.39 ± 0.15 |
| CGACAGCAAUAUUACGCGGU | -4.5 ± 0.15 | -2.85 ± 0.14 |
| CGACAGCAAUAUUACGCUCU | -1.69 ± 0.11 | -0.145 ± 0.11 |
| CGACAGCAAUAUUACGGAGA | -2.18 ± 0.15 | -3.29 ± 0.28 |
| CGACAGCAAUAUUACGGAGC | -2.83 ± 0.19 | -3.04 ± 0.25 |
| CGACAGCAAUAUUACGGGAC | -4.58 ± 0.26 | -1.71 ± 0.14 |
| CGACAGCAAUAUUACGGGGU | -4.03 ± 0.17 | -3.01 ± 0.17 |
| CGACAGCAAUAUUACGGGUC | -4.52 ± 0.32 | -3.14 ± 0.29 |
| CGACAGCAAUAUUACGUACG | -3.63 ± 0.21 | -2.92 ± 0.38 |
| CGACAGCAAUAUUACGUCAU | -3.41 ± 0.24 | -1.54 ± 0.14 |
| CGACAGCAAUAUUACGUCCG | -1.31 ± 0.12 | -1.04 ± 0.12 |
| CGACAGCAAUAUUACGUCUA | -0.367 ± 0.052 | 0.0477 ± 0.061 |
| CGACAGCAAUAUUACGUUCA | -0.308 ± 0.054 | 0.198 ± 0.087 |
| CGACAGCAAUAUUACGUUGA | -3.63 ± 0.15 | -1.85 ± 0.1 |
| CGAGAGCAAUAUUACGAACG | -2.48 ± 0.2 | -1.04 ± 0.21 |
| CGAGAGCAAUAUUACGACCA | -2.78 ± 0.37 | – |
| CGAGAGCAAUAUUACGAGAC | -2.64 ± 0.46 | – |
| CGAGAGCAAUAUUACGAGCG | -0.966 ± 0.11 | -1.72 ± 0.18 |
| CGAGAGCAAUAUUACGAGGG | -4.22 ± 0.31 | -3.16 ± 0.27 |
| CGAGAGCAAUAUUACGAUCC | -3.95 ± 0.46 | -2.36 ± 0.28 |
| CGAGAGCAAUAUUACGAUGC | – | -1.63 ± 0.35 |
| CGAGAGCAAUAUUACGCAGG | – | -1.63 ± 0.17 |
| CGAGAGCAAUAUUACGCCUU | -3.73 ± 0.43 | -1.07 ± 0.29 |
| CGAGAGCAAUAUUACGCGAU | -3.7 ± 0.48 | -1.04 ± 0.37 |

| Sequence | self-splicing fitness (ln) (30 °C) | self-splicing fitness (ln) (37 °C) |
| --- | --- | --- |
| CGAGAGCAAUAUUACGCUGA | -2.91 ± 0.44 | -0.634 ± 0.27 |
| CGAGAGCAAUAUUACGGAAG | -3.57 ± 0.28 | -2.54 ± 0.23 |
| CGAGAGCAAUAUUACGGGCU | -3.67 ± 0.22 | -2.18 ± 0.28 |
| CGAGAGCAAUAUUACGGGGA | -3.24 ± 0.47 | -1.74 ± 0.31 |
| CGAGAGCAAUAUUACGGUAU | -3.41 ± 0.28 | -2.88 ± 0.29 |
| CGAGAGCAAUAUUACGGUGC | -3.73 ± 0.25 | -3.43 ± 0.46 |
| CGAGAGCAAUAUUACGUCAA | -3.22 ± 0.21 | -2.4 ± 0.27 |
| CGAGAGCAAUAUUACGUGCC | – | -2.05 ± 0.38 |
| CGAGAGCAAUAUUACGUGGG | -2.27 ± 0.35 | -1.42 ± 0.28 |
| CGAGAGCAAUAUUACGUUGU | – | -1.57 ± 0.19 |
| CGAGAGCAAUAUUACGUUUA | -3.35 ± 0.36 | -3.25 ± 0.47 |
| CGAUAGCAAUAUUACGAUCA | -0.106 ± 0.06 | 0.441 ± 0.087 |
| CGAUAGCAAUAUUACGAUCC | -0.714 ± 0.13 | 0.104 ± 0.19 |
| CGAUAGCAAUAUUACGAUGU | -0.22 ± 0.14 | -0.614 ± 0.16 |
| CGAUAGCAAUAUUACGAUUC | -3.87 ± 0.39 | -0.777 ± 0.17 |
| CGAUAGCAAUAUUACGCGCU | -0.899 ± 0.12 | -1.02 ± 0.12 |
| CGAUAGCAAUAUUACGGAUC | -3.1 ± 0.3 | -2.6 ± 0.23 |
| CGAUAGCAAUAUUACGGGAA | -2.74 ± 0.32 | -2.33 ± 0.25 |
| CGAUAGCAAUAUUACGGGCC | -1.62 ± 0.49 | -1.8 ± 0.4 |
| CGAUAGCAAUAUUACGUAGC | -3.25 ± 0.19 | -2.68 ± 0.34 |
| CGAUAGCAAUAUUACGUGCU | -3.92 ± 0.34 | -1.34 ± 0.17 |
| CGAUAGCAAUAUUACGUGGU | -3.97 ± 0.16 | -1.94 ± 0.12 |
| CGAUAGCAAUAUUACGUGUC | -3.67 ± 0.2 | -2.64 ± 0.16 |
| CGCAAGCAAUAUUACGAACC | -2.01 ± 0.19 | -0.722 ± 0.19 |
| CGCAAGCAAUAUUACGACAG | -0.409 ± 0.083 | 0.344 ± 0.13 |
| CGCAAGCAAUAUUACGAGAA | – | -2.03 ± 0.42 |
